Results published in PMC10397247.
Each block holds one binder with its values, some of them ahead of it.

Legend:
[1] = target: T1, 4H1072-bN; assay: two-hybrid library CCNG1;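 further: natural log of median RNA to DNA barcode read ratio; higher means stronger binding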
T1 chain: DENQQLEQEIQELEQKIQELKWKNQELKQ

[2] = target: T2, 4H1193-bN; assay: two-hybrid library CCNG1;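 further: natural log of median RNA to DNA barcode read ratio; higher means stronger binding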
T2 chain: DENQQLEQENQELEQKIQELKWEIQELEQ

[3] = target: T3, 4H1387-bN; assay: two-hybrid library CCNG1;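 further: natural log of median RNA to DNA barcode read ratio; higher means stronger binding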
T3 chain: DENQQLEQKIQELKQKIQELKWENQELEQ

[4] = target: T4, 4H1406-bN; assay: two-hybrid library CCNG1;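 further: natural log of median RNA to DNA barcode read ratio; higher means stronger binding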
T4 chain: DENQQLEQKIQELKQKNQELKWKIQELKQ

[5] = target: T5, 4H2568-bN; assay: two-hybrid library CCNG1
T5 chain: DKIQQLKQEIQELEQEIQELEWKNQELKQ

[6] = target: T6, 4H2619-bN; assay: two-hybrid library CCNG1
T6 chain: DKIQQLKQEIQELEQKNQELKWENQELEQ

[7] = target: T7, 4H2745-bN; assay: two-hybrid library CCNG1
T7 chain: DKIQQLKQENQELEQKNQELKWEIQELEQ

[8] = target: T8, 4H344-bN; assay: two-hybrid library CCNG1
T8 chain: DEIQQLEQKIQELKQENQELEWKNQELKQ

[9] = target: T9, 4H3592-bN; assay: two-hybrid library CCNG1
T9 chain: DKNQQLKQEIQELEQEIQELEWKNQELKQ

[10] = target: T10, 4H3601-bN; assay: two-hybrid library CCNG1
T10 chain: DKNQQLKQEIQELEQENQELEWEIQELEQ

[11] = target: T11, 4H363-bN; assay: two-hybrid library CCNG1
T11 chain: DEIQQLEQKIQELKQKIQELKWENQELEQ

[12] = target: T12, 4H3907-bN; assay: two-hybrid library CCNG1
T12 chain: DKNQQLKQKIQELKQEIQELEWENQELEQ

[13] = target: T13, 4H3961-bN; assay: two-hybrid library CCNG1
T13 chain: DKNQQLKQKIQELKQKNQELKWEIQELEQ

[14] = target: T14, 4H4038-bN; assay: two-hybrid library CCNG1
T14 chain: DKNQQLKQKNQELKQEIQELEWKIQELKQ

[15] = target: T15, 4H470-bN; assay: two-hybrid library CCNG1
T15 chain: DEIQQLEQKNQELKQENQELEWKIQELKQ

[16] = target: T16, 4H2143-AA; assay: two-hybrid library CCmax
T16 chain: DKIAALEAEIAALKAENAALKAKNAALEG

[17] = target: T17, 4H2148-AA; assay: two-hybrid library CCmax; conditions: mean of both orientations
T17 chain: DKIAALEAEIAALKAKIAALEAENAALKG

[18] = target: T18, 4H2290-AA; assay: two-hybrid library CCmax; conditions: mean of both orientations
T18 chain: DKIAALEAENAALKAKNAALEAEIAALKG

[19] = target: T19, 4H2447-AA; assay: two-hybrid library CCmax; conditions: mean of both orientations
T19 chain: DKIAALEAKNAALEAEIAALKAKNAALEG

[20] = target: T20, 4H2458-AA; assay: two-hybrid library CCmax; conditions: mean of both orientations
T20 chain: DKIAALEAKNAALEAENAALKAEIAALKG

[21] = target: T21, 4H3330-AA; assay: two-hybrid library CCmax; conditions: mean of both orientations
T21 chain: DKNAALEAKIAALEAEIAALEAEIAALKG

[22] = target: T22, 4H716-AA; assay: two-hybrid library CCmax; conditions: mean of both orientations
T22 chain: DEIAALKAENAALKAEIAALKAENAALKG

[23] = target: T23, 4H733-AA; assay: two-hybrid library CCmax; conditions: mean of both orientations
T23 chain: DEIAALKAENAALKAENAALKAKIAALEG

[24] = target: T24, 4H807-AA; assay: two-hybrid library CCmax; conditions: mean of both orientations
T24 chain: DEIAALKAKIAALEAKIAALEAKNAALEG

[25] = target: T25, APC1015-AA; assay: two-hybrid library CCmax; conditions: mean of both orientations
T25 chain: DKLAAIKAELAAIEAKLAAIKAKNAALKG

[26] = target: T26, APC1434-AA; assay: two-hybrid library CCmax; conditions: mean of both orientations
T26 chain: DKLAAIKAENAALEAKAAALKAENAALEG

[27] = target: T27, APC2237-AA; assay: two-hybrid library CCmax; conditions: mean of both orientations
T27 chain: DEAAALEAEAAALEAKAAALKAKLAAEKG

[28] = target: T28, APC232-AA; assay: two-hybrid library CCmax; conditions: mean of both orientations
T28 chain: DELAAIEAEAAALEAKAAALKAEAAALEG

[29] = target: T29, APC2405-AA; assay: two-hybrid library CCmax; conditions: mean of both orientations
T29 chain: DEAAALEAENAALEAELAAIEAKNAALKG

[30] = target: T30, APC3645-AA; assay: two-hybrid library CCmax; conditions: mean of both orientations
T30 chain: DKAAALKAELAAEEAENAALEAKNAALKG

[31] = target: T31, APC4011-AA; assay: two-hybrid library CCmax; conditions: mean of both orientations
T31 chain: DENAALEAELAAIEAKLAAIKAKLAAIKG

[32] = target: T32, APC4264-AA; assay: two-hybrid library CCmax; conditions: mean of both orientations
T32 chain: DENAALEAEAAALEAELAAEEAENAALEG

[33] = target: T33, APC4436-AA; assay: two-hybrid library CCmax; conditions: mean of both orientations
T33 chain: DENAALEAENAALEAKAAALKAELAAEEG

[34] = target: T34, APC5383-AA; assay: two-hybrid library CCmax; conditions: mean of both orientations
T34 chain: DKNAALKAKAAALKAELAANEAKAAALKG

[35] = target: T35, APC6108-AA; assay: two-hybrid library CCmax; conditions: mean of both orientations
T35 chain: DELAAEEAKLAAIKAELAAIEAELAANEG

[36] = target: T36, APC7099-AA; assay: two-hybrid library CCmax; conditions: mean of both orientations
T36 chain: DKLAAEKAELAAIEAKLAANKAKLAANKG

[37] = target: T37, APC8191-AA; assay: two-hybrid library CCmax; conditions: mean of both orientations
T37 chain: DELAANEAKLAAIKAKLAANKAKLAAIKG

[38] = target: T38, APC8910-AA; assay: two-hybrid library CCmax; conditions: mean of both orientations
T38 chain: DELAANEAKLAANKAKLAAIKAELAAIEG

[39] = target: T39, APC9096-AA; assay: two-hybrid library CCmax; conditions: mean of both orientations
T39 chain: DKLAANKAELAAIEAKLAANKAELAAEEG

[40] = target: T40, APC9319-AA; assay: two-hybrid library CCmax; conditions: mean of both orientations
T40 chain: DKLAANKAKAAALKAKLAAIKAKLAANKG

[41] = target: T41, P2-AA-1HGe-A; assay: two-hybrid library CCmax; conditions: mean of both orientations
T41 chain: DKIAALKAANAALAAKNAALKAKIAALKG

[42] = target: T42, P2-AA-1HGe-D; assay: two-hybrid library CCmax; conditions: mean of both orientations
T42 chain: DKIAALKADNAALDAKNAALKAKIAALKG

[43] = target: T43, P2-AA-1HGe-H; assay: two-hybrid library CCmax; conditions: mean of both orientations
T43 chain: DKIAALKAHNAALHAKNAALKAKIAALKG

[44] = target: T44, P2-AA-1HGe-M; assay: two-hybrid library CCmax; conditions: mean of both orientations
T44 chain: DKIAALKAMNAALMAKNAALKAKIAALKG

[45] = target: T45, P2-AA-1HGe-Q; assay: two-hybrid library CCmax; conditions: mean of both orientations
T45 chain: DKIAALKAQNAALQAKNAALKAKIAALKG

[46] = target: T46, P2-AA-1HGe-T; assay: two-hybrid library CCmax; conditions: mean of both orientations
T46 chain: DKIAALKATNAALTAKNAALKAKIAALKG

[47] = target: T47, P2-AA; assay: two-hybrid library CCmax; conditions: mean of both orientations
T47 chain: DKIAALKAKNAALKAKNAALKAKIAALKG

interaction score [1]: 0.692
interaction score [2]: -0.235
interaction score [3]: 0.922
interaction score [4]: -0.693
interaction score [5]: -0.182
interaction score [6]: 0.775
interaction score [7]: -0.0701
interaction score [8]: -0.983
interaction score [9]: 0.235
interaction score [10]: -0.0449
interaction score [11]: 1.58
interaction score [12]: 1.91
interaction score [13]: 0.231
interaction score [14]: 0.389
interaction score [15]: 0.0488
Binder: DENQQLEQEIQELEQKIQELKWKNQELKQ [4H1072-bN]

interaction score [16]: 2.12
interaction score [17]: -1.43
interaction score [18]: -1.42
interaction score [19]: -1.64
interaction score [20]: -1.32
interaction score [21]: -0.836
interaction score [22]: -1.59
interaction score [23]: -1.41
interaction score [24]: -1.57
interaction score [25]: -1.78
interaction score [26]: -1.23
interaction score [27]: -1.56
interaction score [28]: -2.06
interaction score [29]: -1.48
interaction score [30]: -1.25
interaction score [31]: -0.0916
interaction score [32]: -1.81
interaction score [33]: -1.85
interaction score [34]: -1.98
interaction score [35]: -1.49
interaction score [36]: -1.51
interaction score [37]: -1.3
interaction score [38]: -1.84
interaction score [39]: -1.82
interaction score [40]: -1.6
Binder: DKIAALEAEIAALKAENAALKAKNAALEG [4H2143-AA]

interaction score [41]: 2.34
interaction score [42]: 1.6
interaction score [43]: 1.57
interaction score [44]: 1.8
interaction score [45]: 2.16
interaction score [46]: 1.71
interaction score [47]: 1.8
Binder: DEIAALEAHNAALHAENAALEAEIAALEG [P1-AA-1HGe-H]
